These results are taken from the supplement of paper PMC5998384.

Series [1] concerns HeLa Kyoto. Put plainly: solubility in G1/S (NP-40 vs SDS abundance) (log2 ratio); higher = more soluble. To be noted: cell cycle stage: G1/S.
Series [2] has as its system HeLa Kyoto. Put plainly: melting temperature (median over replicates), in situ; higher = more thermally stable.
The test system of series [3] is HeLa Kyoto. Put plainly: solubility change mitosis vs G1/S (difference of NP-40 vs SDS log2 ratios) (log2 ratio difference); higher = more soluble in mitosis.
For series [4], the system named is HeLa Kyoto. Put plainly: thermal stability score vs G1/S (z-score of summed log2 fold changes over temperatures); higher = more thermally stable than in G1/S.
Setting [5] is: cell cycle stage: early G1 (4.5 h after nocodazole release).
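Throughout, for melting temperature (median over replicates), in situ: HeLa Kyoto cells synchronized by double thymidine or nocodazole block, proteins quantified by TMT10plex mass spectrometry, three independent biological replicates.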
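Throughout, for solubility change mitosis vs G1/S (difference of NP-40 vs SDS log2 ratios): synchronized HeLa Kyoto cells (double thymidine block for G1/S, nocodazole release for mitosis), protein amounts in NP-40 versus SDS lysates quantified by mass spectrometry, three biological replicates.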
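Throughout, for solubility in G1/S (NP-40 vs SDS abundance): HeLa Kyoto cells arrested at G1/S by double thymidine block, proteins quantified by TMT10plex mass spectrometry in mild NP-40 versus SDS extracts, three biological replicates.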
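Throughout, for thermal stability score vs G1/S (z-score of summed log2 fold changes over temperatures): synchronized HeLa Kyoto cells, proteins quantified by TMT10plex mass spectrometry, three biological replicates, mitosis taken 0.5 h after nocodazole release, G1/S directly after double thymidine block.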

Take “MESSPFNRRQWTSLSLRVTAKELSLVNKNKSSAIVEIFSKYQKAAEETNMEKKRSNTENLSQHFRKGTLTVLKKKWENPGLGAESHTDSLRNSSTEIRHRADHPPAEVTSHAASGAKADQEEQIHPRSRLRSPPEALVQGRYPHIKDGEDLKDHSTESKKMENCLGESRHEVEKSEISENTDASGKIEKYNVPLNRLKMMFEKGEPTQTKILRAQSRSASGRKISENSYSLDDLEIGPGQLSSSTFDSEKNESRRNLELPRLSETSIKDRMAKYQAAVSKQSSSTNYTNELKASGGEIKIHKMEQKENVPPGPEVCITHQEGEKISANENSLAVRSTPAEDDSRDSQVKSEVQQPVHPKPLSPDSRASSLSESSPPKAMKKFQAPARETCVECQKTVYPMERLLANQQVFHISCFRCSYCNNKLSLGTYASLHGRIYCKPHFNQLFKSKGNYDEGFGHRPHKDLWASKNENEEILERPAQLANARETPHSPGVEDAPIAKVGVLAASMEAKASSQQEKEDKPAETKKLRIAWPPPTELGSSGSALEEGIKMSKPKWPPEDEISKPEVPEDVDLDLKKLRRSSSLKERSRPFTVAASFQSTSVKSPKTVSPPIRKGWSMSEQSEESVGGRVAERKQVENAKASKKNGNVGKTTWQNKESKGETGKRSKEGHSLEMENENLVENGADSDEDDNSFLKQQSPQEPKSLNWSSFVDNTFAEEFTTQNQKSQDVELWEGEVVKELSVEEQIKRNRYYDEDEDEE [LIMA1]”: in series [1], the “solubility in G1/S (log2)” value was -1.45. The melting temperature worked out at 57.9 °C in series [2] (cell cycle stage: G1/S) and 54.3 °C in series [2] (cell cycle stage: mitosis). In series [3], the “solubility change mitosis (log2)” value came to 0.392. Also, the thermal stability score in series [4] (setting [5]) was -0.923; in series [4] (cell cycle stage: mitosis), -3.34.
For the sequence “MAEAVFHAPKRKRRVYETYESPLPIPFGQDHGPLKEFKIFRAEMINNNVIVRNAEDIEQLYGKGYFGKGILSRSRPSFTISDPKLVAKWKDMKTNMPIITSKRYQHSVEWAAELMRRQGQDESTVRRILKDYTKPLEHPPVKRNEEAQVHDKLNSGMVSNMEGTAGGERPSVVNGDSGKSGGVGDPREPLGCLQEGSGCHPTTESFEKSVREDASPLPHVCCCKQDALILQRGLHHEDGSQHIGLLHPGDRGPDHEYVLVEEAECAMSEREAAPNEELVQRNRLICRRNPYRIFEYLQLSLEEAFFLVYALGCLSIYYEKEPLTIVKLWKAFTVVQPTFRTTYMAYHYFRSKGWVPKVGLKYGTDLLLYRKGPPFYHASYSVIIELVDDHFEGSLRRPLSWKSLAALSRVSVNVSKELMLCYLIKPSTMTDKEMESPECMKRIKVQEVILSRWVSSRERSDQDDL [TSEN2]”, the “solubility in G1/S (log2)” value in series [1] stood at 0.0298. Also, the melting temperature turned out to be 49.7 °C in series [2] (cell cycle stage: G1/S) and 49.9 °C in series [2] (cell cycle stage: mitosis). Besides, the “solubility change mitosis (log2)” value in series [3] is -0.177. Moreover, the thermal stability score in series [4] (setting [5]) is 0.825; in series [4] (cell cycle stage: mitosis) it was 0.75.
Regarding “MRGAMELEPELLLQEARENVEAAQSYRRELGHRLEGLREARRQIKESASQTRDVLKQHFNDLKGTLGKLLDERLVTLLQEVDTIEQETIKPLDDCQKLIEHGVNTAEDLVREGEIAMLGGVGEENEKLWSFTKKASHIQLDSLPEVPLLVDVPCLSAQLDDSILNIVKDHIFKHGTVASRPPVQIEELIEKPGGIIVRWCKVDDDFTAQDYRLQFRKCTSNHFEDVYVGSETEFIVLHIDPNVDYQFRVCARGDGRQEWSPWSVPQIGHSTLVPHEWTAGFEGYSLSSRRNIALRNDSESSGVLYSRAPTYFCGQTLTFRVETVGQPDRRDSIGVCAEKQDGYDSLQRDQAVCISTNGAVFVNGKEMTNQLPAVTSGSTVTFDIEAVTLGTTSNNEGGHFKLRVTISSNNREVVFDWLLDQSCGSLYFGCSFFYPGWKVLVF [CRLF3]”, in series [1], the “solubility in G1/S (log2)” value is -0.117. Moreover, the melting temperature in series [2] (cell cycle stage: G1/S) turned out to be 50 °C; in series [2] (cell cycle stage: mitosis), 49.7 °C. Further, the “solubility change mitosis (log2)” value in series [3] was -0.13. Besides, the thermal stability score in series [4] (setting [5]) was -0.0259; in series [4] (cell cycle stage: mitosis) it was -0.0234.
For “MDAPKAGYAFEYLIETLNDSSHKKFFDVSKLGTKYDVLPYSIRVLLEAAVRNCDGFLMKKEDVMNILDWKTKQSNVEVPFFPARVLLQDFTGIPAMVDFAAMREAVKTLGGDPEKVHPACPTDLTVDHSLQIDFSKCAIQNAPNPGGGDLQKAGKLSPLKVQPKKLPCRGQTTCRGSCDSGELGRNSGTFSSQIENTPILCPFHLQPVPEPETVLKNQEVEFGRNRERLQFFKWSSRVFKNVAVIPPGTGMAHQINLEYLSRVVFEEKDLLFPDSVVGTDSHITMVNGLGILGWGVGGIETEAVMLGLPVSLTLPEVVGCELTGSSNPFVTSIDVVLGITKHLRQVGVAGKFVEFFGSGVSQLSIVDRTTIANMCPEYGAILSFFPVDNVTLKHLEHTGFSKAKLESMETYLKAVKLFRNDQNSSGEPEYSQVIQINLNSIVPSVSGPKRPQDRVAVTDMKSDFQACLNEKVGFKGFQIAAEKQKDIVSIHYEGSEYKLSHGSVVIAAVISCTNNCNPSVMLAAGLLAKKAVEAGLRVKPYIRTSLSPGSGMVTHYLSSSGVLPYLSKLGFEIVGYGCSICVGNTAPLSDAVLNAVKQGDLVTCGILSGNKNFEGRLCDCVRANYLASPPLVVAYAIAGTVNIDFQTEPLGTDPTGKNIYLHDIWPSREEVHRVEEEHVILSMFKALKDKIEMGNKRWNSLEAPDSVLFPWDLKSTYIRCPSFFDKLTKEPIALQAIENAHVLLYLGDSVTTDHISPAGSIARNSAAAKYLTNRGLTPREFNSYGARRGNDAVMTRGTFANIKLFNKFIGKPAPKTIHFPSGQTLDVFEAAELYQKEGIPLIILAGKKYGSGNSRDWAAKGPYLLGVKAVLAESYEKIHKDHLIGIGIAPLQFLPGENADSLGLSGRETFSLTFPEELSPGITLNIQTSTGKVFSVIASFEDDVEITLYKHGGLLNFVARKFS [IREB2]”, the “solubility in G1/S (log2)” value in series [1] amounted to 0.000606. Besides, the figures for the melting temperature in series [2] (cell cycle stage: G1/S) and in series [2] (cell cycle stage: mitosis) were 50.6 °C and 49.8 °C, respectively. Besides, the “solubility change mitosis (log2)” value in series [3] came to 0.0731. Moreover, the values for the thermal stability score in series [4] (setting [5]) and in series [4] (cell cycle stage: mitosis) were -0.342 and -0.0931, respectively.
“MAAAALGSSSGSASPAVAELCQNTPETFLEASKLLLTYADNILRNPNDEKYRSIRIGNTAFSTRLLPVRGAVECLFEMGFEEGETHLIFPKKASVEQLQKIRDLIAIERSSRLDGSNKSHKVKSSQQPAASTQLPTTPSSNPSGLNQHTRNRQGQSSDPPSASTVAADSAILEVLQSNIQHVLVYENPALQEKALACIPVQELKRKSQEKLSRARKLDKGINISDEDFLLLELLHWFKEEFFHWVNNVLCSKCGGQTRSRDRSLLPSDDELKWGAKEVEDHYCDACQFSNRFPRYNNPEKLLETRCGRCGEWANCFTLCCRAVGFEARYVWDYTDHVWTEVYSPSQQRWLHCDACEDVCDKPLLYEIGWGKKLSYVIAFSKDEVVDVTWRYSCKHEEVIARRTKVKEALLRDTINGLNKQRQLFLSENRRKELLQRIIVELVEFISPKTPKPGELGGRISGSVAWRVARGEMGLQRKETLFIPCENEKISKQLHLCYNIVKDRYVRVSNNNQTISGWENGVWKMESIFRKVETDWHMVYLARKEGSSFAYISWKFECGSVGLKVDSISIRTSSQTFQTGTVEWKLRSDTAQVELTGDNSLHSYADFSGATEVILEAELSRGDGDVAWQHTQLFRQSLNDHEENCLEIIIKFSDL [NGLY1]”: the “solubility in G1/S (log2)” value in series [1] was -0.124. The values for the melting temperature in series [2] (cell cycle stage: G1/S) and in series [2] (cell cycle stage: mitosis) were 57.5 °C and 50.3 °C, respectively. Besides, the “solubility change mitosis (log2)” value in series [3] is -0.0564. The thermal stability score was -0.157 in series [4] (setting [5]) and -0.401 in series [4] (cell cycle stage: mitosis).
